Source: patent US20250295737A1 (AstraZeneca / MedImmune, published 2025)
Numbering of substitutions follows the chain as printed.

T1: human RXFP1 (human, UniProt Q9HBX9 1-757)
T1 sequence (looked up): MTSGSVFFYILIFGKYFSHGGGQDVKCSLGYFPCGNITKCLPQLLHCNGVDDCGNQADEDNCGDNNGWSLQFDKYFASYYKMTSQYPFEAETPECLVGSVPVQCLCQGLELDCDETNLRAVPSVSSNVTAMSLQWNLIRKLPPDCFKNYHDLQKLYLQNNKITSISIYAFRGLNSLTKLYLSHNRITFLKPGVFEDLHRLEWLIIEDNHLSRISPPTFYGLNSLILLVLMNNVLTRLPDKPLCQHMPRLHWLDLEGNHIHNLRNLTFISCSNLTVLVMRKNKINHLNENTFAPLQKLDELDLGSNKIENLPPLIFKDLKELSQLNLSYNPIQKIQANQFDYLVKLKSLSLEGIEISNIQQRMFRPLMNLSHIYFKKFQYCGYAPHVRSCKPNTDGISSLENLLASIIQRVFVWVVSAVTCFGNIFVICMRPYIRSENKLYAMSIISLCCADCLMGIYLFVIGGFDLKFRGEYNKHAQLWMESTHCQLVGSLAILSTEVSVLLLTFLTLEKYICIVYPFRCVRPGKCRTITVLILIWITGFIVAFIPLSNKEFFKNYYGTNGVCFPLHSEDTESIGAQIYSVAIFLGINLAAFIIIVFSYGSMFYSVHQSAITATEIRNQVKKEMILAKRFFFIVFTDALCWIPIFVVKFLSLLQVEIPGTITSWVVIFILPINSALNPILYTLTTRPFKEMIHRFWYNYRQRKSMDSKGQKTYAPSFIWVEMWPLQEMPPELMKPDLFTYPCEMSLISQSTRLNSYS

T2: mouse RXFP1 (mouse, UniProt Q6R6I7 1-758)
T2 sequence (looked up): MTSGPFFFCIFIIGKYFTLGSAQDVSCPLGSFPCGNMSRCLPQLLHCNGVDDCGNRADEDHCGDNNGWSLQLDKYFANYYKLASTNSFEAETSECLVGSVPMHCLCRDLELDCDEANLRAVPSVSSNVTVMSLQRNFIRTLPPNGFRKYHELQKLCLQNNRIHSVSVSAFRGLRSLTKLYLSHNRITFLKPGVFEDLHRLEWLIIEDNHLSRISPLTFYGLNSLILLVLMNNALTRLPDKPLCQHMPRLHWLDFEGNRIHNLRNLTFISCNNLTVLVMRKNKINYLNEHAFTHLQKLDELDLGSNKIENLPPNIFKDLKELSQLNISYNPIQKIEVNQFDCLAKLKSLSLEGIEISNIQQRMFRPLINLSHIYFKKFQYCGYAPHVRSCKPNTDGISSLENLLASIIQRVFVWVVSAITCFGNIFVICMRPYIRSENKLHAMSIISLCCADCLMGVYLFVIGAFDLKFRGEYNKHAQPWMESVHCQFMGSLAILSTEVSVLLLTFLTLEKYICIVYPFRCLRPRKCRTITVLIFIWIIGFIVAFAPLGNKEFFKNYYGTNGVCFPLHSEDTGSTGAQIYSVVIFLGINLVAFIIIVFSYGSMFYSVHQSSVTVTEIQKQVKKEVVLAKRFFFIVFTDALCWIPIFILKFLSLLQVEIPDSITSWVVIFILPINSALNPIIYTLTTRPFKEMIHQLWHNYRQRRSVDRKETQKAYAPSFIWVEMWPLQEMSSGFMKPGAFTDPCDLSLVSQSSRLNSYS

B1: RELAX0083 (Fc fusion)
chain 1: DKTHTCPPCPAPEFEGGPSVFLFPPKPKDTLMISRTPEVTCVVVDVSHEDPEVKFNWYVDGVEVHNAKTKPREEQYNSTYRVVSVLTVLHQDWLNGKEYKCKVSNKALPASIEKTISKAKGQPREPQVYTLPPCREEMTKNQVSLWCLVKGFYPSDIAVEWESNGQPENNYKTTPPVLDSDGSFFLYSKLTVDKSRWQQGNVFSCSVMHEALHNHYTQKSLSLSPGGGGGGSQLYSALANKCCHVGCTKRSLARFC
chain 2: DKTHTCPPCPAPEFEGGPSVFLFPPKPKDTLMISRTPEVTCVVVDVSHEDPEVKFNWYVDGVEVHNAKTKPREEQYNSTYRVVSVLTVLHQDWLNGKEYKCKVSNKALPASIEKTISKAKGQPREPQVCTLPPSREEMTKNQVSLSCAVKGFYPSDIAVEWESNGQPENNYKTTPPVLDSDGSFFLVSKLTVDKSRWQQGNVFSCSVMHEALHNHYTQKSLSLSPGGGGGGSSWMEEVIKLCGRELVRAQIAICGMSTWS
B2: RELAX0056 (Fc fusion)
chain 1: DKTHTCPPCPAPEFEGGPSVFLFPPKPKDTLMISRTPEVTCVVVDVSHEDPEVKFNWYVDGVEVHNAKTKPREEQYNSTYRVVSVLTVLHQDWLNGKEYKCKVSNKALPASIEKTISKAKGQPREPQVYTLPPCREEMTKNQVSLWCLVKGFYPSDIAVEWESNGQPENNYKTTPPVLDSDGSFFLYSKLTVDKSRWQQGNVFSCSVMHEALHNHYTQKSLSLSPGAPAPAPAPAPAPAPAPAPAGSQLYSALANKCCHVGCTKRSLARFC
chain 2: DKTHTCPPCPAPEFEGGPSVFLFPPKPKDTLMISRTPEVTCVVVDVSHEDPEVKFNWYVDGVEVHNAKTKPREEQYNSTYRVVSVLTVLHQDWLNGKEYKCKVSNKALPASIEKTISKAKGQPREPQVCTLPPSREEMTKNQVSLSCAVKGFYPSDIAVEWESNGQPENNYKTTPPVLDSDGSFFLVSKLTVDKSRWQQGNVFSCSVMHEALHNHYTQKSLSLSPGAPAPAPAPAPAPAPAPAPAGSSWMEEVIKLCGRELVRAQIAICGMSTWS
B3: RELAX0082 (Fc fusion)
chain 1: DKTHTCPPCPAPEFEGGPSVFLFPPKPKDTLMISRTPEVTCVVVDVSHEDPEVKFNWYVDGVEVHNAKTKPREEQYNSTYRVVSVLTVLHQDWLNGKEYKCKVSNKALPASIEKTISKAKGQPREPQVYTLPPCREEMTKNQVSLWCLVKGFYPSDIAVEWESNGQPENNYKTTPPVLDSDGSFFLYSKLTVDKSRWQQGNVFSCSVMHEALHNHYTQKSLSLSPGGGGGSGGGGGSQLYSALANKCCHVGCTKRSLARFC
chain 2: DKTHTCPPCPAPEFEGGPSVFLFPPKPKDTLMISRTPEVTCVVVDVSHEDPEVKFNWYVDGVEVHNAKTKPREEQYNSTYRVVSVLTVLHQDWLNGKEYKCKVSNKALPASIEKTISKAKGQPREPQVCTLPPSREEMTKNQVSLSCAVKGFYPSDIAVEWESNGQPENNYKTTPPVLDSDGSFFLVSKLTVDKSRWQQGNVFSCSVMHEALHNHYTQKSLSLSPGGGGGSGGGGGSSWMEEVIKLCGRELVRAQIAICGMSTWS
B4: RELAX0055 (Fc fusion)
chain 1: B3 chain 1 with G227A, G228P, G229A, G230P, S231A, G232P, G233A, G234P, G235A
chain 2: B3 chain 2 with G227A, G228P, G229A, G230P, S231A, G232P, G233A, G234P, G235A
B5: RELAX0054 (Fc fusion)
chain 1: DKTHTCPPCPAPEFEGGPSVFLFPPKPKDTLMISRTPEVTCVVVDVSHEDPEVKFNWYVDGVEVHNAKTKPREEQYNSTYRVVSVLTVLHQDWLNGKEYKCKVSNKALPASIEKTISKAKGQPREPQVCTLPPSREEMTKNQVSLSCAVKGFYPSDIAVEWESNGQPENNYKTTPPVLDSDGSFFLVSKLTVDKSRWQQGNVFSCSVMHEALHNHYTQKSLSLSPGAAPAPAPAPAPAPAGSQLYSALANKCCHVGCTKRSLARFC
chain 2: DKTHTCPPCPAPEFEGGPSVFLFPPKPKDTLMISRTPEVTCVVVDVSHEDPEVKFNWYVDGVEVHNAKTKPREEQYNSTYRVVSVLTVLHQDWLNGKEYKCKVSNKALPASIEKTISKAKGQPREPQVYTLPPCREEMTKNQVSLWCLVKGFYPSDIAVEWESNGQPENNYKTTPPVLDSDGSFFLYSKLTVDKSRWQQGNVFSCSVMHEALHNHYTQKSLSLSPGAAPAPAPAPAPAPAGSSWMEEVIKLCGRELVRAQIAICGMSTWS
B6: RELAX0081 (Fc fusion)
chain 1: DKTHTCPPCPAPEFEGGPSVFLFPPKPKDTLMISRTPEVTCVVVDVSHEDPEVKFNWYVDGVEVHNAKTKPREEQYNSTYRVVSVLTVLHQDWLNGKEYKCKVSNKALPASIEKTISKAKGQPREPQVYTLPPCREEMTKNQVSLWCLVKGFYPSDIAVEWESNGQPENNYKTTPPVLDSDGSFFLYSKLTVDKSRWQQGNVFSCSVMHEALHNHYTQKSLSLSPGGGGGSGGGGSGGGGGSQLYSALANKCCHVGCTKRSLARFC
chain 2: DKTHTCPPCPAPEFEGGPSVFLFPPKPKDTLMISRTPEVTCVVVDVSHEDPEVKFNWYVDGVEVHNAKTKPREEQYNSTYRVVSVLTVLHQDWLNGKEYKCKVSNKALPASIEKTISKAKGQPREPQVCTLPPSREEMTKNQVSLSCAVKGFYPSDIAVEWESNGQPENNYKTTPPVLDSDGSFFLVSKLTVDKSRWQQGNVFSCSVMHEALHNHYTQKSLSLSPGGGGGSGGGGSGGGGGSSWMEEVIKLCGRELVRAQIAICGMSTWS
B7: RELAX0109 (Fc fusion)
chain 1: B6 chain 1
chain 2: B5 chain 2

molecular target: T1, human RXFP1; assay: cell-based or functional assay

| EC50 hRXFP1 (M), cAMP HTRF assay | Binder |
| --- | --- |
| 2.81e-11 M | B1 |
| 3.87e-11 M | B2 |
| 5.68e-11 M | B3 |
| 1.88e-11 M | B4 |
| 2.89e-11 M | B5 |
| 4.51e-11 M | B6 |
| 1.72e-09 M | B7 |

molecular target: human RXFP2 (human, UniProt Q8WXD0 1-754); assay: cell-based or functional assay
Sequence (Q8WXD0 whole entry): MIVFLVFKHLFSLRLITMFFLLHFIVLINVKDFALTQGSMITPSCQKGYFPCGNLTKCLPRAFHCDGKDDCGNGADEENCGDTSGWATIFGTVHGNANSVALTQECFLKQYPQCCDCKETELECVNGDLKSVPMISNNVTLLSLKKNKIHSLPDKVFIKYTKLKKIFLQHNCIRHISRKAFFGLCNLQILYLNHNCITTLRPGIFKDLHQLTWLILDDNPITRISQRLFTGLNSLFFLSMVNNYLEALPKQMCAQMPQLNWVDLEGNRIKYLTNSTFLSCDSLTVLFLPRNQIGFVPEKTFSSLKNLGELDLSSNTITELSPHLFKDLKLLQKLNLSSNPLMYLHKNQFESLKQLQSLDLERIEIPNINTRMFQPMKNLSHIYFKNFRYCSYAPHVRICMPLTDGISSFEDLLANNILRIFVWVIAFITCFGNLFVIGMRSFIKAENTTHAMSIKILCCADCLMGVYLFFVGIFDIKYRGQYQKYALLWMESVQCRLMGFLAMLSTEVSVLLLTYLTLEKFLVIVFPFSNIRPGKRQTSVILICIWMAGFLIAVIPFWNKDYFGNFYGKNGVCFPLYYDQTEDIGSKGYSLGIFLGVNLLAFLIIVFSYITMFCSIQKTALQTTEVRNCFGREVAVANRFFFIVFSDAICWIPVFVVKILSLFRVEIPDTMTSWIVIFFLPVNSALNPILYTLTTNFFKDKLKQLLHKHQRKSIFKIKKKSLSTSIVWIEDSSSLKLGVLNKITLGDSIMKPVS

| EC50 hRXFP2 (M), cAMP HTRF assay | Binder |
| --- | --- |
| 2.42e-08 M | B1 |
| 6.48e-08 M | B2 |
| 3.81e-08 M | B3 |
| 3.39e-08 M | B4 |
| 1.53e-08 M | B5 |
| 4.92e-08 M | B6 |

molecular target: T2, mouse RXFP1; assay: cell-based or functional assay

| EC50 mRXFP1 (M), cAMP HTRF assay | Binder |
| --- | --- |
| 1.34e-11 M | B1 |
| 3.27e-11 M | B2 |
| 4.9e-11 M | B3 |
| 1.51e-11 M | B4 |
| 1.59e-11 M | B5 |
| 4.73e-11 M | B6 |
| 8.22e-10 M | B7 |
